This passage reports Ki results from article PMC4605297.

The target in this series is T1, SsOGT wild type (Sulfolobus solfataricus) (UniProt Q97VW7).
T1 sequence: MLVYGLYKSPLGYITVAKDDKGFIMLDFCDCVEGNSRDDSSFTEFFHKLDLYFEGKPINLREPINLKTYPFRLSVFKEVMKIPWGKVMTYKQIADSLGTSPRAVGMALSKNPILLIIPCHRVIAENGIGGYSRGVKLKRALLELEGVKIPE
Put plainly: competition. Conditions: EMSA: 0-25 uM protein, 0.2 uM probe, 37 C 10 min, 10 ul, buffer as ref. 17, 8% native PAGE in 1X TBE pH 8.3, competition: BG-VG assay, 50 C under ref. …. On the technique in general: In EMSA bound probe runs differently from free probe, usually more slowly.

A word on the Ki: it is the equilibrium dissociation constant of an inhibitor or competing ligand from its target.

For the sequence “GGACACTGTACGTTAAGGCGGATCGAATTAGGATTAA / GGTTAATCCTAATTCGATCGCCTTAACGTACAGTGT [ds-UPm]”, the Ki (O6-methylguanine at position 21 of strand 1) is 280 nM. “GGCAGTAGGCCTAGCATGACAATCTGCATTGGTGATCACGG / CGCTCATCCACAATGCAGATTGTCATGCTAGGCCTACTGCC [ds-Fwdm26]” displayed a Ki (O6-methylguanine at position 26 of strand 1) of 830 nM. In other words, the sub-micromolar range.
